The source of these data is patent publication US20250051474A1, “ANTI-CD97 ANTIBODIES AND ANTIBODY-DRUG CONJUGATES” (New York University, priority 2023, published 2025).

As usually defined, the Kd is the concentration at which binding is half-saturated.

Experiment in all cases: cell-based binding assay: CD97 GAIN mutant transiently expressed on ExpiCHO cells, A8 Fab titrated, flow cytometry MFI, 1:1 fit; upper panel
(In general: Flow cytometry measures light scatter and fluorescence of single cells or particles in a stream.)

The target in assay [1] is T1, K519A (human, UniProt P48960).
T1 construct: transiently expressed on the surface of ExpiCHO cells, gated by anti-V5 tag staining; also called CD97 GAIN mutant K519A expressed on ExpiCHO cells
T1 sequence (receptor, looked up): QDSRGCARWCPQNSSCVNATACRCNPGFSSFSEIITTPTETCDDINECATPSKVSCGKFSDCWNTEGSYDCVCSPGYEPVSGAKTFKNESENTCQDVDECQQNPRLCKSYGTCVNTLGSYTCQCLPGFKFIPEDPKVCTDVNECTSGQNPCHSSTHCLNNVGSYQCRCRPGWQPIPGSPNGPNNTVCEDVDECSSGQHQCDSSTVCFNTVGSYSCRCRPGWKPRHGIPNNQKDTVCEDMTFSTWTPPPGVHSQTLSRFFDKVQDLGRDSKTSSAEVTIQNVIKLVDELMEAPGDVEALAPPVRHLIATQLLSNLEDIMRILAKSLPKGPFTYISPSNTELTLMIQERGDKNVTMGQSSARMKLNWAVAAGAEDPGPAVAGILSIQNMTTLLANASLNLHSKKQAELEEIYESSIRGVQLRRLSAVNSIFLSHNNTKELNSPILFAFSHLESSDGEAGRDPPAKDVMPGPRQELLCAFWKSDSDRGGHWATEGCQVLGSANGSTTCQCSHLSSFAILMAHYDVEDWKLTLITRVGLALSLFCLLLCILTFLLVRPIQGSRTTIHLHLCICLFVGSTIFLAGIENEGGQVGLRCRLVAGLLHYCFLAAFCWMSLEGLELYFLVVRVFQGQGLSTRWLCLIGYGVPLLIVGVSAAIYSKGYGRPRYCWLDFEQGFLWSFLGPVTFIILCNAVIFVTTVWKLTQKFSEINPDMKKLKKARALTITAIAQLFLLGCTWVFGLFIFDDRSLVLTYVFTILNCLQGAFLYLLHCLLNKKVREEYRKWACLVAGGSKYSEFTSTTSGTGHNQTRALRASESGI
Experimental: (§1) KD values were determined from the curve fitting of a 1:1 binding model.

Assay [2] concerns the target T2, R380A (human, UniProt P48960).
T2 construct: transiently expressed on the surface of ExpiCHO cells, gated by anti-V5 tag staining; also called CD97 GAIN mutant R380A expressed on ExpiCHO cells
T2 sequence (receptor, looked up): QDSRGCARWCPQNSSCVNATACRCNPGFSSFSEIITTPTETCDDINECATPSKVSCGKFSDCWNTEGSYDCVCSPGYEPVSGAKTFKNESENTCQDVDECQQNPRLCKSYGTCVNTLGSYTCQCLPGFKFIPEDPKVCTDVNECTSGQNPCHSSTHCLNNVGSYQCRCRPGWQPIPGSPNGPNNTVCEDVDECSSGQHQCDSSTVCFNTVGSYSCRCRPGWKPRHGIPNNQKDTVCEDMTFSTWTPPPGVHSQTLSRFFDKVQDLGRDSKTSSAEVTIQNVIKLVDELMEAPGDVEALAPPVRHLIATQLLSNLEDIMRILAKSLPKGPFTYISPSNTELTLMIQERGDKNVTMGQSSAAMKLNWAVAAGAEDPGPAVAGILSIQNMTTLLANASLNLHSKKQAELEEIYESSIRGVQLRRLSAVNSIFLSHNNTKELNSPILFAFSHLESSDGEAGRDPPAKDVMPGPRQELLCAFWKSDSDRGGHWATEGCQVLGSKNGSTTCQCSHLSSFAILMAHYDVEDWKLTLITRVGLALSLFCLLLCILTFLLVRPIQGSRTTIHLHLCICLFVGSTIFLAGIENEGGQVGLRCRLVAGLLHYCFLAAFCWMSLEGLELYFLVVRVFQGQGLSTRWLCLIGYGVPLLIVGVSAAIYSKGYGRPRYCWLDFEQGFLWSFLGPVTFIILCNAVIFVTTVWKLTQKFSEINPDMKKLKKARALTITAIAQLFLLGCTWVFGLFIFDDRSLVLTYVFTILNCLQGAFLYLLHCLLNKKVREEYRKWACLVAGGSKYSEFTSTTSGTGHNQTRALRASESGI
Experimental: as §1

Assay [3] addresses T3, CD97 GAIN mutant Q376A expressed on ExpiCHO cells (human, UniProt P48960 21-835).
T3 construct: numbering of isoform 1; whole entry named
T3 sequence: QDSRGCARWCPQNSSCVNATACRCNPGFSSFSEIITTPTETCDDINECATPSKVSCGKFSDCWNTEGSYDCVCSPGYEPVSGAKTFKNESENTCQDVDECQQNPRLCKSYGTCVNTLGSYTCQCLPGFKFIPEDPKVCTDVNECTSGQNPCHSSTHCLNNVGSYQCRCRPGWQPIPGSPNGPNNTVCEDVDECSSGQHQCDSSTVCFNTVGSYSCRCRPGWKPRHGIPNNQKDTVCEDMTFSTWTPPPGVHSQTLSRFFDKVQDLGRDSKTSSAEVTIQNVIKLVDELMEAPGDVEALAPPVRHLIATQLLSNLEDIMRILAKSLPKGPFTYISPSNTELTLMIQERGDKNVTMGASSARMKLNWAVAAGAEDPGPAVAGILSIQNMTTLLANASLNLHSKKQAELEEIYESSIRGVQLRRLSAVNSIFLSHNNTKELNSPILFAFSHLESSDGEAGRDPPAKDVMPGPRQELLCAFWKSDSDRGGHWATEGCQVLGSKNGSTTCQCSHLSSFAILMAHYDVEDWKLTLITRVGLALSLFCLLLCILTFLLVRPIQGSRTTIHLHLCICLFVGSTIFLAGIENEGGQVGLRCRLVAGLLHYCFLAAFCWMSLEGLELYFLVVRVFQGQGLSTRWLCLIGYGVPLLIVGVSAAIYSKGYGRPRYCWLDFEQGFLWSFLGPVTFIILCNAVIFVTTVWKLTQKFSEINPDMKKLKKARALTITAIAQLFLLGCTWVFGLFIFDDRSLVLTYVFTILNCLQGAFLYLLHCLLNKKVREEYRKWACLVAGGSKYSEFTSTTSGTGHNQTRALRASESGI
Experimental: as §1

B1: Antibody clone A8, Fab format (Fab, V domains shown)
VH: EVQLVESGGGLVQPGGSLRLSCAASGFTISSYSIHWVRQAPGKGLEWVASISPYYGSTSYADSVKGRFTISADTSKNTAYLQMNSLRAEDTAVYYCARSWYYYEQNPYWYQKEEQALDYWGQGTLVTVSS
VL: DIQMTQSPSSLSASVGDRVTITCRASQSVSSAVAWYQQKPGKAPKLLIYSASSLYSGVPSRFSGSRSGTDFTLTISSLQPEDFATYYCQQSVYSPVTFGQGTKVEIKR
notes: Fab; also called wild type A8
B1: the Kd worked out at 110 nM in assay [1], 160 nM in assay [2] and 310 nM in assay [3].
